Experimental data: patent US9789196B2, “Site-specific insulin-polymer conjugates” (AntriaBio, Inc., priority 2003, dated 2017)

Experiments:
[1] = Characterization of PEG-insulin PLGA microspheres (coreload, encapsulation efficiency by RP-HPLC); type: physicochemical; conditions: PLGA 45:55 L:G, 0.15 dL/g, acid end group microspheres, nominal core load 25 wt %
Procedure: PEG-insulin F5000 (50 mg) was dissolved in 1 ml methylene chloride. The solution was added to a volume of 1 ml methylene chloride containing 150 mg PLGA 45:55 (lac:gly), 0.15 dl/g IV with acid end groups. The methylene chloride solution was added to 5 ml water containing 1% poly(vinyl alcohol) in a 15 ml centrifuge tube and vortex-mixed to form an emulsion. The emulsion was added to 100 ml of water containing 0.3% poly(vinyl alcohol) and stirred for 3 hrs to evaporate the methylene chloride. The hardened microspheres were collected by vacuum filtration on Whatman #1 filter paper and dried.
The PEG-insulin microspheres' surface morphology and particle size distribution were examined by scanning electron microscope and laser-light scattering particle size analysis, respectively. Analytical reverse phase HPLC was used to quantify the amount of PEG-insulin conjugate encapsulated within the polymer microspheres. Prior to HPLC analysis, a measured quantity of microspheres was dissolved in a volume of acetonitrile, and an equivalent volume of 0.1% TFA in water was added to precipitate the polymer and extract the conjugate into aqueous solution. K2000, K5000, K10000, K20000 and F5000-A were also encapsulated using this method. The results of these tests are collected in Table 1, which lists the PEG-insulin content in % (w/w) of the total microsphere and the encapsulation efficiency, defined as weight of PEG-insulin encapsulated/weight of PEG-insulin added initially. Relatively high drug content up to 28.3% and encapsulation efficiency, up to 100%, were achieved, making the product clinically useful due to reduced total dose required, and commercially attractive due to low losses of starting material. In addition, microspheres were prepared using polymers of varying lactide:glycolide ratios (50:[…]), molecular weights (6.5-24 kDa), intrinsic viscosities (0.09-0.27 dL/g), or terminal ester groups (methyl and lauryl), with a wide range of drug loadings (5-35 wt %).
Microspheres were prepared with PLGA (45:55 L:G, 0.15 dL/g, acid end group) to a nominal core load of 25 wt %.

[2] = In vitro release of PEG-insulin from PLGA microspheres; type: physicochemical; conditions: PLGA 45:55 microspheres, nominal core load 25 wt %
Procedure: A sample of 15 mg […] PEG-insulin microspheres (14.1% drug content, PLGA 45:55; 0.15 dl/g IV, acid end groups) was suspended in 1.5 ml phosphate buffered saline (pH 7.4, 0.02% sodium azide and 0.02% Tween20) and incubated at 37° C. The supernatant was withdrawn at intervals and analyzed by RP HPLC for released PEG-insulin. The buffer was replaced with fresh PBS and the incubation continued. The data were analyzed for cumulative release as a function of incubation time (FIG. 4). Less than 1.0% of the PEG-insulin is released in the first day and over 95% is released within 18 days. The low “burst” release, high total release and duration over approximately a two-week period are highly desired features of a sustained release insulin formulation.

[3] = system: fasted Sprague-Dawley rats; assay: Pharmacodynamics of PEG-insulin conjugates after intravenous injection to normal rats (blood glucose); type: in vivo, rat; conditions: 0.3 IU/kg equivalent; for suppression of glucose levels relative to normal human insulin: tail vein injection, fasted Sprague-Dawley rats, 6 hrs, vs Humulin R
Procedure: The effects of PEGylation on insulin pharmacodynamics were investigated. These studies were conducted to evaluate the in vivo biological activity (ability to lower serum glucose) of conjugate formulations containing PEG-insulins differing in site of substitution (positional isomers) or PEG molecular weight, relative to a commercially available insulin formulation (Humulin R, Lilly). Blood glucose levels were measured for fasted Sprague-Dawley rats after intravenous administration of F5000, K2000, K5000, K10000, or HumulinR®. The equivalent of 0.3 IU/kg (based on protein concentration and corrected for the weight of the PEG as appropriate; assumes 25 IU/mg protein) were dissolved in normal saline and administered by tail vein injection; N=6 per group. Blood was drawn before test article injection and at intervals over a period of 6 hrs post injection. Serum was isolated by standard procedure and glucose levels were measured using an Accucheck Advantage (Boeringer Ingelheim) glucose meter.

[4] = system: rabbits; conditions: calculated on a molar basis; cited from earlier work
[5] = system: liver enzymes; conditions: cited from earlier work

Substance: F5000-A: probably F5000 made with mPEG(5000)-aldehyde, secondary amine bond at PheB1 (Example 5) [Conjugate F5000-A]
- Coreload [1]: 21 wt %
- Encapsulation Efficiency [1]: 85 wt %
- In vitro release, Initial burst [2]: 20%
- In vitro release, Total [2]: 97%

Substance: K2000: linear mPEG-SPA 2000 Da attached to the amino group of LysB29 of insulin [Conjugate K2000]
- suppression of glucose levels relative to normal human insulin [3]: as effective in suppressing the glucose levels in normal rats as equivalent doses of normal human insulin
- Coreload [1]: 24 wt %
- Encapsulation Efficiency [1]: 96 wt %
- In vitro release, Initial burst [2]: 6%

Substance: K5000: PEG-5000 linked to insulin B chain Lys29 [Conjugate K5000]
- suppression of glucose levels relative to normal human insulin [3]: as effective in suppressing the glucose levels in normal rats as equivalent doses of normal human insulin
- Coreload [1]: 24 wt %
- Encapsulation Efficiency [1]: 96 wt %
- In vitro release, Initial burst [2]: 2%

Substance: K10000: branched mPEG2-SPA 10,000 Da attached to the amino group of LysB29 of insulin [Conjugate K10000]
- duration of action ([3]; intravenous, normal rats): exceed 6 hours
- suppression of glucose levels relative to normal human insulin [3]: did not reduce glucose levels to the same extent as the other test articles
- Coreload [1]: 19 wt %
- Encapsulation Efficiency [1]: 76 wt %
- In vitro release, Initial burst [2]: 80%

Substance: K20000: branched mPEG2-SPA 20,000 Da attached to the amino group of LysB29 of insulin [Conjugate K20000]
- Coreload [1]: 14 wt %
- Encapsulation Efficiency [1]: 56 wt %
- In vitro release, Initial burst [2]: 80%

Substance: mPEG(1500)-B1-insulin: prior-art site-specific PEG 1500 conjugate of insulin at residue PheB1 (Obermeier; Geiger; Ehrat)
- insulin effect on reduction of blood sugar levels [4]: 100%
- stability to liver enzymes compared with native insulin [5]: far more stable (to liver enzymes)

Substance: mPEG(5000)-PheB1-insulin [Conjugate F5000]
- suppression of glucose levels relative to normal human insulin [3]: as effective in suppressing the glucose levels in normal rats as equivalent doses of normal human insulin
- Coreload [1]: 24 wt %
- Encapsulation Efficiency [1]: 96 wt %
- In vitro release, Initial burst [2]: 2%
